Assay results from paper PMC3480499, “Isolation of Reovirus T3D Mutants Capable of Infecting Human Tumor Cells Independent of Junction Adhesion Molecule-A” (PLoS ONE, 2012).
Where a chain is given by its changes, count along the chain named. Names may count otherwise.

B1: reovirus type 3 Dearing (T3D) spike protein σ1, wild type (natural protein)
chain: MDPRLREEVVRLIIALTSDNGASLSKGLESRVSALEKTSQIHSDTILRITQGLDDANKRIIALEQSRDDLVASVSDAQLAISRLESSIGALQTVVNGLDSSVTQLGARVGQLETGLAELRVDHDNLVARVDTAERNIGSLTTELSTLTLRVTSIQADFESRISTLERTAVTSAGAPLSIRNNRMTMGLNDGLTLSGNNLAIRLPGNTGLNIQNGGLQFRFNTDQFQIVNNNLTLKTTVFDSINSRIGATEQSYVASAVTPLRLNSSTKVLDMLIDSSTLEINSSGQLTVRSTSPNLRYPIADVSGGIGMSPNYRFRQSMWIGIVSYSGSGLNWRVQVNSDIFIVDDYIHICLPAFDGFSIADGGDLSLNFVTGLLPPLLTGDTEPAFHNDVVTYGAQTVAIGLSSGGAPQYMSKNLWVEQWQDGVLRLRVEGGGSITHSNSKWPAMTVSYPRSFT
modifications: [35S]-methionine labelled
notes: a stop codon was introduced behind the S1 ORF so that the Myc-His tag of the vector is absent; also called wt σ1; wt T3D σ1
B2: reovirus T3D spike protein σ1 with the Q336R substitution (natural protein)
chain: B1 chain with Q336R
modifications: [35S]-methionine labelled
notes: Outer capsid (attachment/spike) protein σ1 of mammalian reovirus type 3 Dearing, S1 ORF without tag, with Q336R made by mutation PCR on pDGC-S1delTag; Q336R arose spontaneously in the jin-1 and jin-2 viruses; Carries only Q336R, not T193M of jin-1 or G187R of jin-2; Parent plasmid as for m1; also called σ1-Q336R; S1Q336R
B3: reovirus T3D spike protein σ1 with the Y313A substitution (natural protein)
chain: B1 chain with Y313A
modifications: [35S]-methionine labelled
notes: Outer capsid (attachment/spike) protein σ1 of mammalian reovirus type 3 Dearing, S1 ORF without tag, with Y313A made by mutation PCR on pDGC-S1delTag; Forms only intermediate trimers (shaft trimerized, head monomeric), no mature trimers; Parent plasmid as for m1; also called σ1-Y313A; S1Y313A

Target: the molecule itself
Assay: in vitro trimerization assay (mild SDS-PAGE at 4°C); [35S]-methionine labelled in vitro transcription-translation products incubated in sample buffer (2% SDS, 2.5% β-mercaptoethanol) 30 min at 37°C (or boiled 5 min to disrupt trimers), run on a 10% SDS-polyacrylamide gel kept at 4°C, autoradiography

Protein | stoichiometry N
B1 | 3
B2 | 3
B3 | 3
